Results taken from patent US20220267415A1 (University of Texas, published 2022).
Where “and” joins values, the source holds several entries; their conditions need not be identical. Identical values can stand only once. Like-named read-outs stand apart in the source and are kept apart here.

Tests used:
[1] = target: T1, SARS-CoV-2 spike protein, wild type, on live virus (SARS-CoV-2-mNG / USA-WA1/2020) (SARS-CoV-2, UniProt P0DTC2 13-1273); experiment: cell-based or functional assay
[2] = target: T1, SARS-CoV-2 spike protein, wild type, on …; experiment: cell-based or functional assay; remark: listed apart in the source
[3] = target: T1, SARS-CoV-2 spike protein, wild type, on …; experiment: cell-based or functional assay; remark: listed apart in the source
[4] = target: T2, recombinant SARS-CoV-2 Receptor Binding Domain (RBD) with a his tag (ATUM, Cat. 65639.1.a) (SARS-CoV-2, UniProt P0DTC2 319-541); experiment: ELISA on coated RBD-his
From the text: Plates were then washed 5 times with 0.05% PBS-Tween and blocked with 2% BSA-PBS. […] Luminescent data were collected on an EnVision plate reader (Perkin-Elmer) and analyzed with GraphPad Prism using a 4-parameter logistic model.

[5] = target: T2, recombinant SARS-CoV-2 Receptor Binding …
[6] = target: T1, SARS-CoV-2 spike protein, wild type, on …; experiment: cell-based or functional assay; remark: listed apart in the source
[7] = target: T1, SARS-CoV-2 spike protein, wild type, on …; experiment: cell-based or functional assay; remark: listed apart in the source
[8] = target: T1, SARS-CoV-2 spike protein, wild type, on …; experiment: cell-based or functional assay; remark: listed apart in the source

B1: anti-SARS-CoV2-14 IgM (full lambda light chain) (antibody)
heavy: EVQLQQSGPGLVKPSQTLSLTCAISGDSVSSNSAAWNWIRQSPSRGLEWLGRTYYRSKWYNDYAVSVKSRITINPDTSKNQFSLQLNSVTPEDTAVYYCAREEQQLVHDYYYYGMDVWGQGTMVTVSSGSASAPTLFPLVSCENSPSDTSSVAVGCLAQDFLPDSITFSWKYKNNSDISSTRGFPSVLRGGKYAATSQVLLPSKDVMQGTDEHVVCKVQHPNGNKEKNVPLPVIAELPPKVSVFVPPRDGFFGNPRKSKLICQATGFSPRQIQVSWLREGKQVGSGVTTDQVQAEAKESGPTTYKVTSTLTIKESDWLSQSMFTCRVDHRGLTFQQNASSMCVPDQDTAIRVFAIPPSFASIFLTKSTKLTCLVTDLTTYDSVTISWTRQNGEAVKTHTNISESHPNATFSAVGEASICEDDWNSGERFTCTVTHTDLPSPLKQTISRPKGVALHRPDVYLLPPAREQLNLRESATITCLVTGFSPADVFVQWMQRGQPLSPEKYVTSAPMPEPQAPGRYFAHSILTVSEEEWNTGETYTCVVAHEALPNRVTERTVDKSTGKPTLYNVSLVMSDTAGTCY
light: QAVVTQPASVSGSPGQSITISCTGTSSDIGAYNYISWYQQHPGKAPKLIIYEVSNRPSGISYRFSGSKSGNTASLTISGLQAEDEANYYCSSYAGSISFGGGTKVTVLGQPKAAPSVTLFPPSSEELQANKATLVCLISDFYPGAVTVAWKADSSPVKAGVETTTPSKQSNNKYAASSYLSLTPEQWKSHRSYSCQVTHEGSTVEKTVAPTECS
chain: not shown
For B1, the “Fold-Increase in potency of IgM over IgG” value [1] was 46 fold, the “Neutralization EC50 (PRNT)” value [1] was 0.011 µg/mL and the “Fold-Increase in potency of IgM over IgG” value [2] was 61 fold. The “Neutralization EC50 (PRNT)” value [2] was 0.0052 µg/mL and the “Neutralization EC50” value [3] was 0.0046 µg/mL.

B2: anti-SARS-CoV2-16 IgM (antibody)
VH: QVQLHQWGAGLLKPSETLSRTCAVYGGSFSGYYWTWIRQAPGKGLEWIGEINHGGSTRYNPSLESRVSISVDTSKKQFSLELRSVTAADTAIYYCARGYDTNWYGDGYNWFDPWDRGTLVTVSS
VL: QAVVTQPPSVSGTPGQRVTISCSGSSSSIGSNTVHWYQHLPGTAPKLLMYNNNERPSGVPARFSGSKSGTSASLVITGLQADDEAEYYCQSYDTGLSGHVFGSGTELTVL
chain: not shown
B2 was tested, and the EC50 [4] was 300 pM and the “EC50 (read off the curve)” value [5] was roughly 300 pM.

B3: anti-SARS-CoV2-09 IgA1 (antibody)
VH: B2 VH
VL: QSALTQDPSVSVALGQTVRITCQGDSLRGSFASWYRQKPGQAPVLVIFGINNRPSGVPDRFSGSSSGNTASLTITGAQAEDEADYYCNSRESNSNRILFGGGTKVTVL
chain: not shown
B3 showed an EC50 [4] of 1000 pM.

B4: anti-SARS-CoV2-09 IgA2m2 (antibody)
VH: B2 VH
VL: B3 VL
chain: not shown
For B4, the EC50 [4] was 1400 pM.

B5: anti-SARS-CoV2-16 IgA1 (antibody)
VH: B2 VH
VL: B2 VL
chain: not shown
In the case of B5, the EC50 [4] is reported as 600 pM and the “EC50 (read off the curve)” value [5] is reported as roughly 500 pM.

B6: anti-SARS-CoV2-16 IgA2m2 (antibody)
VH: B2 VH
VL: B2 VL
chain: not shown
For B6, the EC50 [4] was 600 pM and the “EC50 (read off the curve)” value [5] was roughly 600 pM.

B7: anti-SARS-CoV2-06 IgM (lambda-VL-kappa-CL hybrid light chain) (antibody)
VH: QVELQESGPGLVKPSGTLSLTCAVSGGSISSNNWWTWVRQPPGKGLEWIGEIHHSGGTNYNPSLKSRVTMSVDKSKNQFSLNLYSVTAADTAVYYCTRDRAGGTYSGFDFWGQGTLVTVSS
VL: QAVVTQPASVSGSPGQSITISCTGTSSDVGGYNYVSWYQQHPGKAPKLMIYDVSNRPSGVSNRFSGSKSGNTASLTISGLQAEDEADYYCSSYTSSSTVVFGGGTKVTVL
chain: not shown
In the case of B7, the “EC50 (neutralization of live SARS-CoV-2-mNG)” value [6] is reported as 0.06 µg/ml and 0.067 nM, the “Fold change of neutralization EC50 in nM (IgM-06 against IgG-06)” value [6] is reported as 14.9 fold and the “Fold change of neutralization EC50 in µg/ml (IgM-06 against IgG-06)” value [6] is reported as 2.5 fold. The “Neutralization EC50” value [7] was 0.059 µg/mL.

B8: anti-SARS-CoV2-06 IgG (lambda-VL-kappa-CL hybrid light chain) (antibody, V domains shown)
VH: B7 VH
VL: B7 VL
In the case of B8, the “EC50 (neutralization of live SARS-CoV-2-mNG)” value [6] is reported as 0.15 µg/ml and 1 nM and the “Neutralization EC50” value [7] is reported as 0.22 µg/mL.

B9: anti-SARS-CoV2-14 IgG (lambda-VL-kappa-CL hybrid light chain) (antibody, V domains shown)
VH: EVQLQQSGPGLVKPSQTLSLTCAISGDSVSSNSAAWNWIRQSPSRGLEWLGRTYYRSKWYNDYAVSVKSRITINPDTSKNQFSLQLNSVTPEDTAVYYCAREEQQLVHDYYYYGMDVWGQGTMVTVSS
VL: QAVVTQPASVSGSPGQSITISCTGTSSDIGAYNYISWYQQHPGKAPKLIIYEVSNRPSGISYRFSGSKSGNTASLTISGLQAEDEANYYCSSYAGSISFGGGTKVTVL
In the case of B9, the “EC50 (neutralization of live SARS-CoV-2-mNG)” value [8] is reported as 2.6 nM and 0.39 µg/ml and the “Neutralization EC50” value [7] is reported as 0.39 µg/mL.

B10: anti-SARS-CoV2-14 IgA1 (antibody)
VH: B9 VH
VL: B9 VL
chain: not shown
Binder B10 has an EC50 [4] of 1900 pM.

B11: anti-SARS-CoV2-14 IgG (full lambda light chain) (antibody, V domains shown)
VH: B9 VH
VL: B9 VL
With B11 the “Neutralization EC50 (PRNT)” value [1] was 0.51 µg/mL, the “Neutralization EC50 (PRNT)” value [2] was 0.32 µg/mL and the “Neutralization EC50” value [3] was 0.6 µg/mL.

B12: anti-SARS-CoV2-14 IgA2m2 (antibody)
VH: B9 VH
VL: B9 VL
chain: not shown
Binder B12 has an EC50 [4] of 14000 pM.

B13: anti-SARS-CoV2-26 IgA1 (antibody)
VH: not shown
VL: QSALTQPPSASGTPGQRVTISCSGSSSNIGSNSVNWYQQVPGTAPKLLIYANDHRPSGVPDRFSGSKSGTSASLAISGLQSEDEADYYCAAWDNSLKGVVFGGGTKVTVL
chain: not shown
B13 showed an EC50 [4] of 1800 pM.

B14: anti-SARS-CoV2-26 IgA2m2 (antibody)
VH: not shown
VL: B13 VL
chain: not shown
B14 showed an EC50 [4] of 38000 pM.
